Positions count from the first letter of the chain named.
Legend:
Assay in all cases: SPR, Fab over captured mutant LAG-3-Fc;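 also: fc fusion variants captured on anti-human IgG Fc sensor, Fab injected with association then dissociation phases, KD obtained from Langmuir one-to-one fit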
[1] = molecular target: T1, human LAG-3 domain 1-2 Fc fusion, point mutation #48 V101A (human, UniProt P18627 23-266)
T1 construct: not shown: human IgG1 Fc, AA P101-K330
T1 sequence: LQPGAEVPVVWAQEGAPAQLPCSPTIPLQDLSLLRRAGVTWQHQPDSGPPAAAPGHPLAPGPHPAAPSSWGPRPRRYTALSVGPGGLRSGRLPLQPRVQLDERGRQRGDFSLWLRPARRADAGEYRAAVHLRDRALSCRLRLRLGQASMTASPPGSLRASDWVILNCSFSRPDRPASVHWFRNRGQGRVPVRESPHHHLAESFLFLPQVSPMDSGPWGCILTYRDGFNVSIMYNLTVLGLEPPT

[2] = molecular target: T2, human LAG-3 domain 1-2 Fc fusion, point mutation #54 R110A (human, UniProt P18627 23-266)
T2 construct: not shown: human IgG1 Fc, AA P101-K330
T2 sequence: T1 sequence with A79V, R88A

[3] = molecular target: T3, human LAG-3 domain 1-2 Fc fusion, point mutation #72 S133A (human, UniProt P18627 23-266)
T3 construct: not shown: human IgG1 Fc, AA P101-K330
T3 sequence: T1 sequence with A79V, S111A

[4] = molecular target: T4, human LAG-3 domain 1-2 Fc fusion, point mutation #77 R148A (human, UniProt P18627 23-266)
T4 construct: not shown: human IgG1 Fc, AA P101-K330
T4 sequence: T1 sequence with A79V, R126A

[5] = molecular target: T5, human LAG-3 domain 1-2 Fc fusion, point mutation #79 S159A (human, UniProt P18627 23-266)
T5 construct: not shown: human IgG1 Fc, AA P101-K330
T5 sequence: T1 sequence with A79V, S137A

[6] = molecular target: T6, human LAG-3 domain 1-2 Fc fusion, point mutation #6 T47A (human, UniProt P18627 23-266)
T6 construct: not shown: human IgG1 Fc, AA P101-K330
T6 sequence: T1 sequence with T25A, A79V

[7] = molecular target: T7, human LAG-3 domain 1-2 Fc fusion, point mutation #17 Q66A (human, UniProt P18627 23-266)
T7 construct: not shown: human IgG1 Fc, AA P101-K330
T7 sequence: T1 sequence with Q44A, A79V

[8] = molecular target: T8, human LAG-3 domain 1-2 Fc fusion, point mutation #19 D68A (human, UniProt P18627 23-266)
T8 construct: not shown: human IgG1 Fc, AA P101-K330
T8 sequence: T1 sequence with D46A, A79V

[9] = molecular target: T9, human LAG-3 domain 1-2 Fc fusion, point mutation #28 A81S (human, UniProt P18627 23-266)
T9 construct: not shown: human IgG1 Fc, AA P101-K330
T9 sequence: T1 sequence with A59S, A79V

B1: Fab fragment of antibody 15011 (Fab, V domains shown, not shown: a dimerising Fc or GST)
VH: EVQLLESGGGLVQPGGSLRLSCAASGFDFRSYAMMWVRQAPGKGLEWVGGINGEVGGSNTYYAPAVKGRATISRDNSKNTLYLQMNSLRAEDTAVYYCVKGAGACGICNDDIDAWGQGTLVTVSS
VL: SYELTQDPAVSVALGQTVRITCSGAGSYAGSYYYGWHQQKPGQAPVTVIYDNDKRPSNIPDRFSGSSSGNTASLTITGAQAEDEADYYCGSTNDNDDGGLFGSGTKVTVLG
notes: monomeric Fab made by GingisKHAN digestion of the IgG1
[1]
  KD mutant/KD wild type: 0.5 fold
[2]
  binding result: no binding (tested: 300 nM)
[3]
  KD mutant/KD wild type: 0.6 fold
[4]
  KD mutant/KD wild type: 0.7 fold
[5]
  KD mutant/KD wild type: 0.7 fold
[6]
  KD mutant/KD wild type: 0.9 fold
[7]
  KD mutant/KD wild type: 0.7 fold
[8]
  KD mutant/KD wild type: 0.6 fold
[9]
  KD mutant/KD wild type: 0.8 fold

B2: Fab fragment of antibody 15572 (Fab, V domains shown, not shown: a dimerising Fc or GST)
VH: QLQLQESGPGLVKPSETLSLTCTVSGDSISSSSYYWGWIRQPPGKGLEWIGSIFYSGNTYYNPSLKSRVTISVDTSKNQFSLKLSSVTAADTAVYYCAREDDFLTDYYGAFDIWGQGTMVTVSS
VL: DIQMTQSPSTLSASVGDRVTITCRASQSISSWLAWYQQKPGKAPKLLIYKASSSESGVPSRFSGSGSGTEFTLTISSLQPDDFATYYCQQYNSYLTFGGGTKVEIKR
notes: as for B1
[1]
  binding result: no binding (tested: 300 nM)
[2]
  KD mutant/KD wild type: 0.6 fold
[3]
  binding result: no binding (tested: 300 nM)
[4]
  binding result: no binding (tested: 300 nM)
[5]
  KD mutant/KD wild type: 0.3 fold
[6]
  KD mutant/KD wild type: 0.6 fold
[7]
  binding result: no binding (tested: 300 nM)
[8]
  binding result: no binding (tested: 300 nM)
[9]
  KD mutant/KD wild type: 0.6 fold

B3: Fab fragment of antibody 15532 (Fab, V domains shown, not shown: a dimerising Fc or GST)
VH: QVQLQQWGAGLLRPSETLSLTCAVYGESFSGYYWNWIRQPPGKGLEWIGEINHSGSTNYNPSLKSRVTISVDTSKTQFSLKLSSVTAADTAVYYCARGWDLLDWNDYWNEYWGQGTLVTVSS
VL: EIVLTQSPATLSLSPGERATLSCRASQSVSSYLAWYQQKPGQAPRLLIYDASNRATGIPARFSGSGSGTDFTLTISSLEPEDFAVYYCQQRSNWPLTFGGGTKVEIKR
notes: as for B1
[1]
  KD mutant/KD wild type: 3.5 fold
[2]
  KD mutant/KD wild type: 0.9 fold
[3]
  KD mutant/KD wild type: 2.2 fold
[4]
  KD mutant/KD wild type: 2.9 fold
[5]
  KD mutant/KD wild type: 0.7 fold
[6]
  KD mutant/KD wild type: 1.5 fold
[7]
  KD mutant/KD wild type: 2.7 fold
[8]
  KD mutant/KD wild type: 3.4 fold
[9]
  KD mutant/KD wild type: 0.6 fold

B4: Fab fragment of antibody 15431 (Fab, V domains shown, not shown: a dimerising Fc or GST)
VH: QVQLQQSGPGLVKPSQTLSLTCAISGDSVSSNSAAWNWIRQSPSRGLEWLGRTYYRSKWYNDYAVSVKSRITINPDTSKNQFSLQLNSVTPEDTAVYYCARDDDWNDFDYWGQGTLVTVSS
VL: B3 VL
notes: as for B1
[1]
  binding result: no binding (tested: 300 nM)
[2]
  KD mutant/KD wild type: 0.9 fold
[3]
  binding result: no binding (tested: 300 nM)
[4]
  binding result: no binding (tested: 300 nM)
[5]
  KD mutant/KD wild type: 0.9 fold
[6]
  KD mutant/KD wild type: 0.9 fold
[7]
  binding result: no binding (tested: 300 nM)
[8]
  binding result: no binding (tested: 300 nM)
[9]
  KD mutant/KD wild type: 0.6 fold

From patent US20220363757A1 (SYMPHOGEN A S, published 2022)
